According to the supplement of paper PMC10724198:
± gives the standard deviation of the averaged measurements.

These sequences were tested on Saccharomyces cerevisiae (assay: protein stability index of tFT-peptide fusion (C-terminal peptide) (PSI (0-1 scale)); higher = more stable (slower turnover)). Details: genetic background: wild type; temperature: 30 C.
Procedure: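 Multiplexed protein stability (MPS) profiling in S. cerevisiae. Random 12-aa peptides (tFT-X12 library) are fused to the C-terminus of a sfGFP-mCherry tandem fluorescent timer, after mCherry and a GGGS linker. Cells are FACS-sorted into 8 mCherry/sfGFP bins and deep-sequenced. The protein stability index (PSI) is the read-weighted bin average, scaled from 0 (unstable) to 1 (stable). Only peptides with >10 reads are reported; cells were grown at 30 °C in SC-His with glucose.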
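Further: PSI is a weighted mean of sequencing reads over stability bins, variants kept only with over 10 reads, mCherry proximal and sfGFP distal, peptide attached via GGGS linker.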

In order of rising protein stability index:
1. NFVLACYSYNYW  0.523 ± 0.011
2. SRLMGLGLLCVG  0.5272 ± 0.0013
3. WLGAYVRAWSVA  0.533 ± 0.0011
4. LVLGRCWMSVPR  0.535 ± 0.014
5. SVPVLLLSILSP  0.542 ± 0.013
6. FFVGFASLRLVL  0.5517 ± 0.0046
7. VSLVGGLGFGVG  0.553 ± 0.028
8. KRVIVRLASYAS  0.55909 ± 2.1e-05
9. KHTNWGKQLIMT  0.5631 ± 0.0016
10. KNTVRKCNGRMH  0.57 ± 0.063
11. CVDGLFCCLVFW  0.571 ± 0.028
12. PLLPSPAPLHPP  0.583 ± 0.044
13. FLAGGRFLCIVV  0.593 ± 0.098
14. WVCCVGAGFLVV  0.594 ± 0.03
15. FSVPRFVSISGI  0.6 ± 0.034
16. AFLVGDVFGRLL  0.602 ± 0.016
17. RPPGLIDSTIQP  0.602 ± 0.034
18. PLSPPPPGPPAS  0.6037 ± 0.0024
19. KLLRPMVLPQRT  0.615 ± 0.02
20. QLPSDENSPANR  0.615 ± 0.019
21. RRAHATLPMNEF  0.616 ± 0.015
22. VWGGGRGGGGKG  0.619 ± 0.031
23. SVSGTPLRALLH  0.622 ± 0.01
24. ASFRPDGYTYSV  0.622 ± 0.071
25. LLLPNPTPPPPP  0.625 ± 0.0012
26. LLSRLVVRGLVS  0.629 ± 0.087
27. PREVGVYQQIRD  0.63 ± 0.019
28. GWVPCGSWRVPG  0.631 ± 0.038
29. GLGVPWVRWGWV  0.632 ± 0.019
30. VQASQFRFSVPL  0.632 ± 0.013
31. PGPSPVLPPPPP  0.633 ± 0.038
32. GAIVLMSCRNVI  0.634 ± 0.04
33. VFSTFGSCHICC  0.636 ± 0.033
34. TEVSAPAPPCLW  0.6371 ± 0.0058
35. SHLSTLSHPPPP  0.637 ± 0.043
36. PTQFSSAADLSA  0.637 ± 0.062
37. PHPPRPSTPPPT  0.637 ± 0.059
38. KGRGEVGTRRYG  0.638 ± 0.079
39. FSEKLLRSSVYR  0.639 ± 0.19
40. PDGGPGLLRFVL  0.64 ± 0.015
41. ERLLLGLNRRLG  0.643 ± 0.055
42. DCRELCQSEVMG  0.643 ± 0.1
43. GNEKSSRLRSTT  0.644 ± 0.12
44. SGGRGAILVSVV  0.647 ± 0.078
45. VFAVGRPGRGVV  0.648 ± 0.014
46. VQSVIEPSIRYA  0.648 ± 0.014
47. CGGAQRREGGLG  0.649 ± 0.03
48. VLLAGRLEEGGE  0.65 ± 0.087
49. LFRPSPPRPLPP  0.651 ± 0.0071
50. LFLTPTSPVAAL  0.651 ± 0.065
51. KMGTEEGRVWVG  0.651 ± 0.054
52. HISTQREEIDPA  0.6506 ± 0.00086
53. KKRERNDKRGCQ  0.652 ± 0.024
54. DMTVICDVAGQT  0.652 ± 0.019
55. IGRWHCPDLPRH  0.653 ± 0.12
56. MEDSRSDSSGSP  0.6534 ± 0.00074
57. EFSILLPLPFFR  0.656 ± 0.076
58. RGVGFMGEGVTW  0.656 ± 0.069
59. SPPPALPPSSPS  0.657 ± 0.025
60. VRGMGGIGRCVG  0.657 ± 0.074
61. PSLLHPPLPTSP  0.657 ± 0.036
62. KRILKEKRRKKN  0.658 ± 0.036
63. CCRICCCLLGTH  0.658 ± 0.032
64. PIMESARGFLCV  0.658 ± 0.052
65. DFQRPGSFVFNG  0.658 ± 0.048
66. SALNKPLTTESG  0.6586 ± 0.0021
67. SPTALPPPPVPP  0.662 ± 0.041
68. SLPRSHRRGPVP  0.663 ± 0.014
69. LDQQKSCHLIFL  0.663 ± 0.033
70. SPPPHPPAAPDS  0.6626 ± 0.0058
71. VILCPVCFPEEK  0.66459 ± 0.00057
72. PFSNFFFRLSFS  0.665 ± 0.028
73. PPWPPLLPRPSP  0.666 ± 0.03
74. WVCARQVGIGWG  0.6657 ± 0.0019
75. LPHPPTPPLPRP  0.667 ± 0.078
76. SLATFRTLLPES  0.667 ± 0.019
77. GVNDRLIKMSCA  0.667 ± 0.033
78. KKKKTQKKKTKQ  0.668 ± 0.019
79. RGGGGGRVAREC  0.668 ± 0.011
80. FESRGEPPDIQV  0.668 ± 0.049
81. AQRKSVLSPDLC  0.67 ± 0.035
82. PSSHPLLPPPPP  0.67 ± 0.06
83. GVLGRVRLGWVG  0.671 ± 0.012
84. KLVGASVYECQR  0.672 ± 0.012
85. PPHPSTPIPPPR  0.672 ± 0.012
86. PPPPPARPSVPP  0.673 ± 0.077
87. IRSLSGPLSRTF  0.673 ± 0.076
88. FAPRRDPMQVQY  0.6744 ± 0.0032
89. DWTNLTVITGDT  0.674 ± 0.035
90. PPSPSFLPPPPP  0.676 ± 0.024
91. LYPVPLSPPPAD  0.676 ± 0.026
92. GGGVPGGLGREG  0.677 ± 0.043
93. FSLPSVPCATYR  0.678 ± 0.043
94. PLRSPSYPPPPP  0.6814 ± 0.00091
95. RTKVSENLNEKK  0.681 ± 0.032
96. PPPSSPPPLPLP  0.681 ± 0.017
97. VGVGAGQWVVWY  0.682 ± 0.028
98. KTKERKKQMRKI  0.6822 ± 0.0042
99. PSPSPLPASFRL  0.683 ± 0.11
100. AYRISCAGHIMA  0.684 ± 0.053
101. WAVGRGLVLSST  0.684 ± 0.042
102. GKYHIFNPNPKA  0.685 ± 0.012
103. NCAPVPLSPADS  0.685 ± 0.032
104. VDSPFPTPLPLI  0.685 ± 0.087
105. KKKKKKQQKKRK  0.686 ± 0.039
106. SLVVFGFGGYLL  0.686 ± 0.021
107. PPLPPLLFRSPP  0.687 ± 0.017
108. KIKSKKEKPQVT  0.687 ± 0.023
109. VLVYISDLKRSL  0.689 ± 0.14
110. PLPPPPTPPVLP  0.691 ± 0.016
111. CVPYLGEFTRNG  0.691 ± 0.038
112. KKRKKKKQTKRK  0.691 ± 0.022
113. LLPHCRPGSTAA  0.692 ± 0.019
114. LRDQEYAMRPPC  0.693 ± 0.08
115. VRWCLPPLFTPL  0.693 ± 0.059
116. KKRTTKEKKQHK  0.693 ± 0.033
117. SRRRIENNKTEN  0.695 ± 0.015
118. TARRGAARSSQL  0.695 ± 0.017
119. PSDGCSPSSTGN  0.696 ± 0.076
120. PTRSPPPAAIAS  0.697 ± 0.14
121. VSVRGREGLDWK  0.698 ± 0.019
122. LSPLLSLPRCPT  0.7 ± 0.04
123. VLFPSPSPPLSS  0.7 ± 0.0071
124. DDFSHVEVFERV  0.7 ± 0.062
125. KKKEENGGRGDE  0.7008 ± 0.0041
126. KKKKTKYIKRKK  0.701 ± 0.18
127. PSPLPVSAPLLP  0.701 ± 0.039
128. IRRGRQGGEHEK  0.702 ± 0.097
129. VITFPAFLPISN  0.702 ± 0.017
130. WSSVLGYFSRKE  0.702 ± 0.024
131. VEVRVRCVGGRV  0.703 ± 0.068
132. CLPGVVRGLSTM  0.703 ± 0.036
133. LAASVTERPAGR  0.703 ± 0.011
134. PPPPPSPPPPPH  0.704 ± 0.0074
135. NKKKKHKNSKNN  0.704 ± 0.055
136. TEGGSSKPSSNP  0.704 ± 0.089
137. TGRGSMSNVRVK  0.706 ± 0.06
138. LPPAFRIPHTWY  0.71 ± 0.0071
139. APPARSTPPPRP  0.712 ± 0.045
140. FESTIKNINNSI  0.714 ± 0.011
141. PSRRPPLPLPRP  0.714 ± 0.013
142. SWVSQFLVFWPV  0.716 ± 0.044
143. QRKNQKKKHNRR  0.7159 ± 0.0027
144. PRPGSTTPPAYR  0.7163 ± 0.0053
145. LKGVVRFISGQD  0.71735 ± 0.00052
146. AFGRLNTWFCFP  0.719 ± 0.037
147. TWPGRAGGRGAT  0.721 ± 0.1
148. YRRASGGTVEDM  0.721 ± 0.024
149. PVGWVEASLSPG  0.721 ± 0.027
150. PRFFCSGSSPLR  0.721 ± 0.026
151. PPACSPSPPRSS  0.723 ± 0.028
152. PRPPLPLFPSSL  0.723 ± 0.048
153. NRSERIKDNRGK  0.723 ± 0.025
154. PSCYDPCSPPPH  0.723 ± 0.047
155. IIGVKNEGRGRE  0.724 ± 0.089
156. PLNQSYFVFSGN  0.724 ± 0.019
157. GRKNPPGTTDES  0.725 ± 0.073
158. WCSVGVSGFVIR  0.725 ± 0.0075
159. GAARGWLPGAGW  0.727 ± 0.04
160. YPRGFPTLSYSS  0.727 ± 0.023
161. SYPRATPPWMAG  0.727 ± 0.092
162. GSGLWAGLWRAW  0.727 ± 0.078
163. LKLTFPFWNTGT  0.728 ± 0.034
164. GLAPPRPYPPPA  0.728 ± 0.065
165. TEYCSRHDTATK  0.728 ± 0.0096
166. FALPSASHFPVP  0.7289 ± 0.0046
167. KKEKKVKKNRKR  0.729 ± 0.021
168. LCGYAMSFRPLG  0.73 ± 0.091
169. AALSNRGIHWWK  0.732 ± 0.018
170. SRTVSLDYHFMS  0.7319 ± 0.00097
171. DVGFGWGCGVGG  0.736 ± 0.014
172. SLCWDVLFLPVV  0.736 ± 0.064
173. PPPPRPPPALLP  0.736 ± 0.021
174. SMYLPSSSDVLS  0.736 ± 0.014
175. GPRGGGGWSCES  0.7366 ± 0.0032
176. PPLPPLPVPPTL  0.738 ± 0.11
177. NTHPPPLPTTKH  0.7393 ± 0.007
178. GSGGGVRRTIML  0.739 ± 0.022
179. WRPPPPYSPFSL  0.74 ± 0.066
180. CPLPGSRHLAPV  0.742 ± 0.068
181. SVAPAPYQTAKQ  0.744 ± 0.032
182. WGRCGSVGRGGA  0.749 ± 0.024
183. GGREWWLSDGTV  0.75 ± 0.033
184. TYPSWIYELNKT  0.753 ± 0.077
185. LLRSEETTIEPF  0.7531 ± 0.004
186. EGLSYSFGDCPM  0.754 ± 0.03
187. KKIYEKRKKLRK  0.756 ± 0.057
188. SPSRPRPPPHAP  0.7624 ± 0.00086
189. RSGSRNYPGFPR  0.764 ± 0.027
190. RGVGGAPVWPFV  0.765 ± 0.0093
191. PYLLDTPPPSTP  0.769 ± 0.043
192. ERKNRKIRREKK  0.774 ± 0.16
193. DCRPNIRSRVSG  0.785 ± 0.18
194. HPFGHSFLTAPF  0.793 ± 0.16
195. RALITRAPSKER  0.795 ± 0.084
196. VGGGPVWREPGT  0.796 ± 0.025
